Measured values: IntAct's records for PubMed 15328353

B1: Plasminogen activator inhibitor 1 (Mus musculus), P22777 (parent)
chain: MQMSSALACLILGLVLVSGKGFTLPLRESHTAHQATDFGVKVFQQVVQASKDRNVVFSPYGVSSVLAMLQMTTAGKTRRQIQDAMGFKVNEKGTAHALRQLSKELMGPWNKNEISTADAIFVQRDLELVQGFMPHFFKLFQTMVKQVDFSEVERARFIINDWVERHTKGMINDLLAKGAVDELTRLVLVNALYFSGQWKTPFLEASTHQRLFHKSDGSTVSVPMMAQSNKFNYTEFTTPDGLEYDVVELPYQRDTLSMFIAAPFEKDVHLSALTNILDAELIRQWKGNMTRLPRLLILPKFSLETEVDLRGPLEKLGMPDMFSATLADFTSLSDQEQLSVAQALQKVRIEVNESGTVASSSTAFVISARMAPTEMVIDRSFLFVVRHNPTETILFMGQVMEP
partner: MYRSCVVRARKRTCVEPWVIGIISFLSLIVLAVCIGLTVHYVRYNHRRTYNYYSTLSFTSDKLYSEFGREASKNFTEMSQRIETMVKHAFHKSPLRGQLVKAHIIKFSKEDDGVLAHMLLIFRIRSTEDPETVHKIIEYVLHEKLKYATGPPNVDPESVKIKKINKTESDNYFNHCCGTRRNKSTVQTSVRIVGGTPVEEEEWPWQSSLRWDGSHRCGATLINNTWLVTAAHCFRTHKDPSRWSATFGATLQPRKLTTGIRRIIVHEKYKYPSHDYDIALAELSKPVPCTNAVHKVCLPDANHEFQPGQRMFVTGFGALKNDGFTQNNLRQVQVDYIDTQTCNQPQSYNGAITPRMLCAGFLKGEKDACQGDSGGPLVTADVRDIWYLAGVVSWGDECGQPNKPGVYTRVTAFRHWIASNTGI
B2: Plasma serine protease inhibitor (Mus musculus), P70458 (parent)
chain: MRFFPILCLVLFISHGVASRRHSHSKKKKAKESSVGAVGPPSSKDFAFRLYRALVSESPGQNVFFSPLSVSMSLGMLSLGAGLKTKTQILDGLGLSLQQGQEDKLHKGFQQLLQRFRQPSDGLQLSLGSALFKDPAVHIRDDFLSAMKTLYMSDTFSTNFGNPEIAKKQINNYVAKQTKGKIVDFIKDLDSTHVMIVVNYIFFKAKWQTAFSETNTHKMDFHVTPKRTTQVPMMNREDGYSYYLDQNISCTVVGIPYQGNAIALFILPSEGKMKQVEDGLDERTLRNWLKMFTKRRLDLYLPKFSIEATYKLENVLPKLGIQDVFTTHADLSGITDHTNIKLSEMVHKSMMEVEESGTTAAAITGAIFTFRSARPSSLKIEFTRPFLLTLMEDSHILFVGKVTRP
partner: B1 partner

Variants of: B1
Conditions: with tm11e_mouse Tmprss11e

effect of a mutation on the interaction	Variant
decreasing interaction	MQMSSALACLILGLVLVSGKGFTLPLRESHTAHQATDFGVKVFQQVVQASKDRNVVFSPYGVSSVLAMLQMTTAGKTRRQIQDAMGFKVNEKGTAHALRQLSKELMGPWNKNEISTADAIFVQRDLELVQGFMPHFFKLFQTMVKQVDFSEVERARFIINDWVERHTKGMINDLLAKGAVDELTRLVLVNALYFSGQWKTPFLEASTHQRLFHKSDGSTVSVPMMAQSNKFNYTEFTTPDGLEYDVVELPYQRDTLSMFIAAPFEKDVHLSALTNILDAELIRQWKGNMTRLPRLLILPKFSLETEVDLRGPLEKLGMPDMFSATLADFTSLSDQEQLSVAQALQKVRIEVNESGRVRSSSTAFVISARMAPTEMVIDRSFLFVVRHNPTETILFMGQVMEP [T356R;A358R]
decreasing interaction	MQMSSALACLILGLVLVSGKGFTLPLRESHTAHQATDFGVKVFQQVVQASKDRNVVFSPYGVSSVLAMLQMTTAGKTRRQIQDAMGFKVNEKGTAHALRQLSKELMGPWNKNEISTADAIFVQRDLELVQGFMPHFFKLFQTMVKQVDFSEVERARFIINDWVERHTKGMINDLLAKGAVDELTRLVLVNALYFSGQWKTPFLEASTHQRLFHKSDGSTVSVPMMAQSNKFNYTEFTTPDGLEYDVVELPYQRDTLSMFIAAPFEKDVHLSALTNILDAELIRQWKGNMTRLPRLLILPKFSLETEVDLRGPLEKLGMPDMFSATLADFTSLSDQEQLSVAQALQKVRIEVNESGTVASSSTAFVISAAMAPTEMVIDRSFLFVVRHNPTETILFMGQVMEP [R369A]

Variants of: B2
Conditions: with tm11e_mouse Tmprss11e

effect of a mutation on the interaction	Variant
decreasing interaction	MRFFPILCLVLFISHGVASRRHSHSKKKKAKESSVGAVGPPSSKDFAFRLYRALVSESPGQNVFFSPLSVSMSLGMLSLGAGLKTKTQILDGLGLSLQQGQEDKLHKGFQQLLQRFRQPSDGLQLSLGSALFKDPAVHIRDDFLSAMKTLYMSDTFSTNFGNPEIAKKQINNYVAKQTKGKIVDFIKDLDSTHVMIVVNYIFFKAKWQTAFSETNTHKMDFHVTPKRTTQVPMMNREDGYSYYLDQNISCTVVGIPYQGNAIALFILPSEGKMKQVEDGLDERTLRNWLKMFTKRRLDLYLPKFSIEATYKLENVLPKLGIQDVFTTHADLSGITDHTNIKLSEMVHKSMMEVEESGTTAAAITGAIFTFRSAAPSSLKIEFTRPFLLTLMEDSHILFVGKVTRP [R374A]
